Measured values reported in article PMC5656003.

Tested on: O=[N+]([O-])c1ccc(O[C@@H]2O[C@H](CO)[C@@H](O)[C@H](O)[C@H]2O)cc1
Assay: pNP release, initial-rate kinetics
Assay type: biochemical, Bacteroides ovatus

Substance	Km [µM]	kcat [s⁻¹]	kcat/Km [M⁻¹ s⁻¹]
BACOVA_02738 (GH3) (Bacteroides ovatus)	2530 ± 130	0.212 ± 0.004	83.8
BoGH3MLG (Bacteroides ovatus)	2950 ± 140	59.5 ± 1.46	20200
